Experimental data published in patent US20110165161A1, “ANTI-EPCAM ANTIBODIES THAT INDUCE APOPTOSIS OF CANCER CELLS AND METHODS USING SAME” (priority 2009, published 2011).

Assays:
[1] = system: COLO 205 colon cancer cells; assay: Cytotoxicity of anti-EpCAM antibodies in combination with oxaliplatin in COLO 205; type: cell-based, human; conditions: No mAb added, 24 hr
Experimental: Oxaliplatin, combined with infusional administration of 2 other chemotherapy drugs, 5-fluorouracil/leucovorin (5-FU/LV), is now considered as one of the as first-line treatments for people with advanced carcinoma of the colon or rectum (André et al. (2004) N Engl J Med 350(23):2343-2351). To test the cytotoxicity of anti-EpCAM antibodies in the presence of oxaliplatin, 1×10^5 COLO 205 cells were seeded to each well of a 96-well plate, and then 0.03, 0.3 and 3 μg/ml of anti-EpCAM or control (9E10) mAbs in combination with oxaliplatin at concentration of 0, 0.01, 0.1, and 1 μg/ml diluted in the medium were added into the cells. After a 24-hr incubation at 37° C., the cells were stained with 0.3 μl of FITC-conjugated Annexin V (Strong Biotech Corp. Cat. No. AVK250) in 50 μl Annexin V binding buffer (Strong Biotech Corp. Cat. No. AVK250) at RT for 20 min. After wash, the cells were then stained with 0.3 μl of propidium iodide in 200 μl Annexin V binding buffer. Annexin V and Propidium Iodide were used as a joint indicator for measuring cell death. The data were acquired with BD FACSCalibur based on an acquisition of 3,000-5,000 cells and analyzed with the Cell Quest software. The combined percentages of the Annexin V+/PI+, Annexin V+/PI− and Annexin V−/PI+populations were considered as dead cells.

EGFI-Cr1 Q24A = biological target: T1, EGFI-Cr1 Q24A (human, UniProt P16422 25-63); assay: direct ELISA, coated EGFI-Cr1 fusion, 0.1 µg/ml antibody
T1 construct: not shown: The fused constant region of human immunoglobulin gamma 1 heavy chain (Cr1)
T1 chain: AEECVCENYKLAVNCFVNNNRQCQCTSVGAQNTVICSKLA
Experimental: (§1) A direct ELISA was used for testing the reactivity of anti-EpCAM antibodies toward variant EpCAM mutants. Briefly, purified EpCAM EGF-1 fusion proteins (WT, Q24A, E25K, E26D, A35T, N37R, F39A, V40E, N41A, N42E, N43A, R44G, Q45A, Q47A or T49A) and irrelevant control (CEA-Cr1) were pre-diluted to 0.5 μg/ml in coating buffer (8.4 g NaHCO₃, 3.4 g Na₂CO₃ in 1 L H₂O, pH 9.5) and aliquoted (100 μl/well) into 96-well plates. […] Plates were then washed 3 times with PBST followed by the addition of the enzyme substrate TMB (BD Biosciences, Cat. No. 555214). […] The optical densities at 450 nm wavelength were measured on an ELISA plate reader.

EGFI-Cr1 N42E = biological target: T2, EGFI-Cr1 N42E (human, UniProt P16422 24-63); assay: as above
T2 construct: not shown: the constant region of human immunoglobulin gamma 1 heavy chain (Cr1) fused at the C-terminus
T2 chain: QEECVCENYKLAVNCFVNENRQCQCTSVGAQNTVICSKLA
Experimental: as §1

EGFI-Cr1 R44G = biological target: T3, EGFI-Cr1 R44G (human, UniProt P16422 24-63); assay: as above
T3 construct: not shown: the constant region of human immunoglobulin gamma 1 heavy chain (Cr1) fused at the C-terminus
T3 chain: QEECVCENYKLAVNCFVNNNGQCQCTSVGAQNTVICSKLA
Experimental: as §1

EGFI-Cr1 E26D = biological target: T4, EGFI-Cr1 E26D (human, UniProt P16422 24-63); assay: as above
T4 construct: not shown: The fused constant region of human immunoglobulin gamma 1 heavy chain (Cr1)
T4 chain: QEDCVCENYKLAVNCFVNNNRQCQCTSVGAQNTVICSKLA
Experimental: as §1

EGFI-Cr1 Q45A = biological target: T5, EGFI-Cr1 Q45A (human, UniProt P16422 24-63); assay: as above
T5 construct: not shown: the constant region of human immunoglobulin gamma 1 heavy chain (Cr1) fused at the C-terminus
T5 chain: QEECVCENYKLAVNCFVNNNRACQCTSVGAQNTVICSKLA
Experimental: as §1

EGFI-Cr1 V40E = biological target: T6, EGFI-Cr1 V40E (human); assay: as above
T6 construct: not shown: The fused constant region of human immunoglobulin gamma 1 heavy chain (Cr1)
T6 chain: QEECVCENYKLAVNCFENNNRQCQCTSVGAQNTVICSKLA
Experimental: as §1

EGFI-Cr1 N43A = biological target: T7, EGFI-Cr1 N43A (human, UniProt P16422 24-63); assay: as above
T7 construct: not shown: the constant region of human immunoglobulin gamma 1 heavy chain (Cr1) fused at the C-terminus
T7 chain: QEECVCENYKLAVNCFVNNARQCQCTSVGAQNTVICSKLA
Experimental: as §1

EGFI-Cr1 Q47A = biological target: T8, EGFI-Cr1 Q47A (human, UniProt P16422 24-63); assay: as above
T8 construct: not shown: the constant region of human immunoglobulin gamma 1 heavy chain (Cr1) fused at the C-terminus
T8 chain: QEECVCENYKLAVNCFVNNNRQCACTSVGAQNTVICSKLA
Experimental: as §1

EGFI-Cr1 N37R = biological target: T9, EGFI-Cr1 N37R (human); assay: as above
T9 construct: not shown: The fused constant region of human immunoglobulin gamma 1 heavy chain (Cr1)
T9 chain: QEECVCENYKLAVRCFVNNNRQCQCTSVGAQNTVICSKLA
Experimental: as §1

EGFI-Cr1 F39A = biological target: T10, EGFI-Cr1 F39A (human, UniProt P16422 24-63); assay: as above
T10 construct: not shown: The fused constant region of human immunoglobulin gamma 1 heavy chain (Cr1)
T10 chain: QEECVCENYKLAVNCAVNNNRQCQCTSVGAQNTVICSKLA
Experimental: as §1

EGFI-Cr1 A35T = biological target: T11, EGFI-Cr1 A35T (human, UniProt P16422 24-63); assay: as above
T11 construct: not shown: The fused constant region of human immunoglobulin gamma 1 heavy chain (Cr1)
T11 chain: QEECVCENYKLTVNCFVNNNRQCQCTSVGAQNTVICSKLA
Experimental: as §1

EGFI-Cr1 T49A = biological target: T12, EGFI-Cr1 T49A (human, UniProt P16422 24-63); assay: as above
T12 construct: not shown: the constant region of human immunoglobulin gamma 1 heavy chain (Cr1) fused at the C-terminus
T12 chain: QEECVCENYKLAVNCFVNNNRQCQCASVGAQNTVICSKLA
Experimental: as §1

EGFI-Cr1 N41A = biological target: T13, EGFI-Cr1 N41A (human, UniProt P16422 24-63); assay: as above
T13 construct: not shown: The fused constant region of human immunoglobulin gamma 1 heavy chain (Cr1)
T13 chain: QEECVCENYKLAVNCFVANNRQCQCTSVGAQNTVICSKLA
Experimental: as §1

[2] = biological target: T14, EGFI-Cr1 wild type (first EGF-like repeat of human EpCAM fused to the constant region of human immunoglobulin … (human, UniProt P01857-1 99-330 = IgG part)); assay: as above
T14 construct: cDNA covered aa 1-63; Expressed in COS-7 cells; also called WT; EpCAM EGF-1 fusion protein WT
Experimental: as §1

EGFI-Cr1 E25K = biological target: T15, EGFI-Cr1 E25K (human, UniProt P16422 24-63); assay: as above
T15 construct: not shown: The fused constant region of human immunoglobulin gamma 1 heavy chain (Cr1)
T15 chain: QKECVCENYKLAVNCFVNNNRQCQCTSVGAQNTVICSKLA
Experimental: as §1

Molecule | % of Annexin V + PI staining (untreated background subtracted) ([1]; oxaliplatin 0.01 μg/ml) [%] | % of Annexin V + PI staining (untreated background subtracted) ([1]; oxaliplatin 0.1 μg/ml) [%] | % of Annexin V + PI staining (untreated background subtracted) ([1]; oxaliplatin 1 μg/ml) [%] | relative binding activity (% of WT) (EGFI-Cr1 Q24A) [%] | relative binding activity (% of WT) (EGFI-Cr1 N42E) [%] | relative binding activity (% of WT) (EGFI-Cr1 R44G) [%] | relative binding activity (% of WT) (EGFI-Cr1 E26D) [%] | relative binding activity (% of WT) (EGFI-Cr1 Q45A) [%] | relative binding activity (% of WT) (EGFI-Cr1 V40E) [%] | relative binding activity (% of WT) (EGFI-Cr1 N43A) [%] | relative binding activity (% of WT) (EGFI-Cr1 Q47A) [%] | relative binding activity (% of WT) (EGFI-Cr1 N37R) [%] | relative binding activity (% of WT) (EGFI-Cr1 F39A) [%] | relative binding activity (% of WT) (EGFI-Cr1 A35T) [%] | relative binding activity (% of WT) (EGFI-Cr1 T49A) [%] | relative binding activity (% of WT) (EGFI-Cr1 N41A) [%] | relative binding activity (% of WT) [2] [%] | relative binding activity (% of WT) (EGFI-Cr1 E25K) [%]
O=C1[O][Pt]2([NH][C@@H]3CCCC[C@H]3[NH]2)[O]C1=O [Oxaliplatin, reference compound] | 1 | 1 | 2 | – | – | – | – | – | – | – | – | – | – | – | – | – | – | –
murine monoclonal antibody 1G10 (antibody, mouse IgG1, V domains shown, Mouse IgG1, kappa, from hybridoma; also called m290-1G10) VH: QIQLVQSGPELKKPGETVKISCKASGYTFTNYGMNWVKQAPGKGFKWMGWINTYTGEPTYADDFKGRFAFSLETSASTAYLQINNLQNEDMATYFCARWGYDFDYWGQGTTLTVSS VL: QIVLTQSPAIMSSSPGEKVTMTCSASSSISYMNWYQQKPGTSPKRWIYDTSKLASGVPARFSGSGSGTSYSLTISSMEAEDAATYYCHQRSSYPYTFGGGTKLEIKR | – | – | – | 44 | 93 | 95 | 1 | 80 | 71 | 96 | 49 | 1 | 78 | 89 | 17 | 23 | 100 | 3
murine monoclonal antibody 1F10 (antibody, mouse IgG1, V domains shown, Mouse IgG1, lambda 1, from hybridoma; also called m338-1F10.3) VH: EVKLLESGGGLVQPGGSLKLSCAASGFDFSRYWMSWVRQAPGKGLEWIGEINPDSSTMNYTPSLKDKFIISRDNAKNTLYLQMSKVRSEDTALYYCARGAYAMDYWGQGTSVTVSS VL: QAVVTQESALTTSPGETVTLTCRSSTGAVTTSNNANWVQEKPDHLFTGLIGATNNRAPGVPARFSGSLIGDKAALTITGAQTEDEAIYFCALWYINHWVFGGGTKLTVLG | – | – | – | 93 | 95 | 1 | 98 | 84 | 1 | 100 | 92 | 97 | 81 | 93 | 94 | 63 | 100 | 10
